How the values were obtained:
[1] = biological target: T1, recombinant human IL4Rα-his protein (in house made) (human, UniProt P24394 26-232, limits assumed); test: capture ELISA: antibody captured on anti-IgG Fc plate, biotin human IL4Rα-his detected
T1 construct: also called Human IL4Ra-his

[2] = biological target: T1, recombinant human IL4Rα-his protein (in …); test: competitive ELISA: coated human IL4Rα-his, blocked ligand biotin human IL4
[3] = biological target: T1, recombinant human IL4Rα-his protein (in …); test: competitive ELISA: antibody mixed with biotin human IL4Rα-his, competitor plate-coated Benchmark
[4] = biological target: T2, cynomolgus monkey IL4Rα-his protein (cynomolgus monkey, UniProt A0A2K5V580 33-239); test: indirect ELISA on coated cynomolgus IL4Rα-his
T2 construct: Bought protein; also called Cynomolgus IL4Rα; Cyno-IL4Rα-his; not shown: his tag

[5] = biological target: T3, human IL4Rα expressed on 293F-IL4Rα cells (human, UniProt P24394 26-825); test: flow cytometry on 293F-IL4Rα cells, blocked ligand biotin human IL4
T3 construct: whole, on cells; also called cell surface human IL4Rα

B1: chimeric antibody C2C1A1A1 (antibody, human IgG4 S228P, kappa, V domains shown)
VH: EVQLVESGGGLVQPGGSLKLSCAASGFTFSTYGMSWVRQTPDKRLELVATINSNGGSTSYPDSVKGRFTISRDNAKNTLYLQMSSLKSEDTAMFYCARFFRFRNAMDYWGQGTSVTVSS
VL: DIQMTQSPASLSASVGETVTITCRTSENIYSYLAWYQQKQGKSPQFLVYNAKTLAEGVPSRFSGSGSGTQFSLNINSLQSEDFGSYYCQHYYGPPTWTFGGGTKLEIKR
notes: Mouse variable domains on human IgG4/kappa; also called Chimeric C2C1A1A1; chC2C1A1A1
EC50 [1]: 0.0541 nM
IC50 [2]: 2.46 nM
IC50 [3]: 0.172 nM
EC50 [4]: 0.603 nM
IC50 [5]: 0.482 nM

— patent US20230105029A1 (CHIA TAI TIANQING PHARMACEUTICAL GROUP, published 2023)
